Molecular target: tau of P301L tau transgenic mice (4R2N human tau mutated at P301L) (human) (UniProt P10636)
Assay: free-tau ELISA on CSF of P301L mice treated with IPN002, against control IgG (Figure 33)

UniProt P10636, sequence (P10636 other isoform, or with tags, fused parts or gaps P301L P301L P301L P301L limits assumed): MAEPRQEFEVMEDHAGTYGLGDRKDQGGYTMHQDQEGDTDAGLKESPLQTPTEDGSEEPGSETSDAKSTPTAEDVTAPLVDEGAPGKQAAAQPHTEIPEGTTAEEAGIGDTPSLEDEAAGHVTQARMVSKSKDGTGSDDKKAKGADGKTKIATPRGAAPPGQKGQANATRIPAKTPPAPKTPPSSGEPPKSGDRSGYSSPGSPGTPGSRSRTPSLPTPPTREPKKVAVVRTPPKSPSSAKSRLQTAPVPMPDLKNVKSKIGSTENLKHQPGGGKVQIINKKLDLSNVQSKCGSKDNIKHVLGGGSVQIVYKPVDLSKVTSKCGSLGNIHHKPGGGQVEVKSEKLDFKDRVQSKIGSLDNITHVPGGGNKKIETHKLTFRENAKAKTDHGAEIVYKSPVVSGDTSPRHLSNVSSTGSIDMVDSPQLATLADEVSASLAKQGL

- reduction in levels of the Free Tau (of IPN002) signal in CSF: 96%
B1: IPN002 (antibody, V domains shown)
VH: EVHLVESGGALVKPGGSLKLSCAASGFSFSKYGMSWVRQTPDKRLEWVATISSSGSRTYYPDSVKGQFTISRDNAKNTLYLQMSSLKSEDTAMYYCSISWDGAMDYWGQGTSVTVSS
VL: DVLMTQTPLSLPVSLGDQASISCKSSQSIVHSNGNTYLEWYLQKPGQSPKLLVYKVSNRFSGVPDRFSGSGSGTDFTLKISRVEAEDLGTYYCFQGSLVPWAFGGGTKLEIK

From EP3007726B1
